Measurements reported in patent publication US20240109974A1 (SHANDONG SIMCERE BIOPHARMACEUTICAL, published 2024).
Residue numbers refer to the chain shown, from its start.

T1: human TNFR2 on the surface of CHO-TNFR2 cells (human, UniProt P20333 23-461)
T1 construct: whole, on cells
T1 sequence (looked up): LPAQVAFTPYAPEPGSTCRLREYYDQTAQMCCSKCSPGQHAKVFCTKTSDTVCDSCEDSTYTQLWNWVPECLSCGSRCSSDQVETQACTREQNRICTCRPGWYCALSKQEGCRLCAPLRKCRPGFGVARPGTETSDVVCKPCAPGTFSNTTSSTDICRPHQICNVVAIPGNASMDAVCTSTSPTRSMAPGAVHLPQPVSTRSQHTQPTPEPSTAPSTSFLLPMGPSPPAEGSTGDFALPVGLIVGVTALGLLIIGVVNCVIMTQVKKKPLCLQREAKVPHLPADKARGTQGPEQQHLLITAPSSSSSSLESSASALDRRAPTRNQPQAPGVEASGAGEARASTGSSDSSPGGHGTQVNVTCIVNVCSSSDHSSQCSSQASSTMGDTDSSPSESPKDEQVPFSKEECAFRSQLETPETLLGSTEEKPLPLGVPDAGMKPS

T2: human TNFR2 (Novoprotein, Cat #C830) (human, UniProt P20333 23-257, limits assumed)
T2 construct: construct not described; also called human TNFR2 protein
T2 sequence (looked up): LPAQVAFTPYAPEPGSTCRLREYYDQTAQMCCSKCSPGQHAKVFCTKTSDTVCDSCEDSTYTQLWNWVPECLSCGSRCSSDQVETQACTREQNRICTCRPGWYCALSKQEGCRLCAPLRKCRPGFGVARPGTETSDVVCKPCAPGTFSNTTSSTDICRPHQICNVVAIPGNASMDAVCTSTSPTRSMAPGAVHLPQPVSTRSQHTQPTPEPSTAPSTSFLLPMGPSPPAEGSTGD

B1: 224-Hu1 (antibody, V domains shown)
VH: QVQLVQSGAEVKKPGASVKVSCKASGFNNKDIYMHWVRQAPGQGLEWIGRIDPATGNTKHDPKFQDRVTMTSDTSTNTVYMELSSLRSEDTAVYYCARSPYGDFGAMDYWGQGTLVTVSS
VL: DIQMTQSPSSLSASVGDRVTITCTASSSVSSNYLHWYQQKPGKAPKLWIYSTSNLPSGVPSRFSGSGSGTDFTLTISSLQPEDFATYYCHQYHRSPWTFGQGTKVEIK
notes: Humanized form of #224; also called VH8 + VL6
B2: 224-Hu7 (antibody, V domains shown)
VH: QVQLVQSGSELKKPGASVKVSCKASGFNNKDIYMHWVRQAPGQGLEWMGRIDPATGNTKHDPKFQDKAVLSSDTSVSTAYLQISSLKAEDTAVYYCARSPYGDFGAMDYWGQGTLVTVSS
VL: B1 VL with W48L
notes: Humanized form of #224; also called VH9 + VL10
B3: 224-Hu6 (antibody, V domains shown)
VH: B1 VH
VL: B1 VL with K43S, A44S
notes: Humanized form of #224; also called VH8 + VL7
B4: 224-Hu4 (antibody, V domains shown)
VH: B2 VH
VL: B1 VL
notes: Humanized form of #224; also called VH9 + VL6
B5: 224-Hu2 (antibody, V domains shown)
VH: B2 VH
VL: B1 VL with K43S, A44S
notes: Humanized form of #224; also called VH9 + VL7
B6: 224-Hu3 (antibody, V domains shown)
VH: B2 VH
VL: B1 VL with W48L, P81A, F84A
notes: Humanized form of #224; also called VH9 + VL8
B7: 224-Hu5 (antibody, V domains shown)
VH: B2 VH
VL: B1 VL with W48L, F72Y, T73S
notes: Humanized form of #224; also called VH9 + VL9

How the values were obtained:
[1] = molecular target: T1, human TNFR2 on the surface of CHO-TNFR2 …; assay: flow cytometry on CHO-TNFR2 cells; AUC against 224-WT
Description: The transfected full-length plasmid of human TNFR2 was purchased from Sino Biological (Cat #HG10417-UT, NCBI Ref Seq: NM_001066.2). The experiment was conducted at a cell density within 80%. The cell medium was discarded; the cells were rinsed with PBS, and digested with 1 ml trypsin for 2 minutes; the digestion was stopped with a Ham's F12 complete medium containing 10% FBS, and then a cell suspension was made. The cell suspension was counted, and then an appropriate amount of cell suspension was centrifuged at 350×g; the supernatant was discarded; a corresponding volume of blocking solution (10% FBS+PBS) at a density of 1×10⁷ cells/ml was added to resuspend the cells, and the mixture was incubated at 4° C. for 30 minutes. After the incubation, the mixture was centrifuged at 350×g to remove the supernatant, and the cells were resuspended in a staining buffer (2% FBS+PBS) to a density of 2×10⁶ cells/ml, and spread onto a 96-well plate, with 50 μl of cell suspension added to each well for later use. The antibody was diluted with PBS for 10-fold gradient dilution from the highest concentration of 20 μg/m (twice the concentration); the diluted antibody was added to the well containing 50 μl of cell suspension, and placed on a microplate shaker for shaking at 500 rpm for 1 minute, so that the antibody was fully mixed with the cells; the mixture was incubated at 4° C. for 1 h. After the incubation, the cells were washed twice with the staining buffer, with 100 μl per well, and centrifuged at 350-g for 5 minutes, and the supernatant was discarded. The PE goat anti-Human IgG Fc antibody (ebioscience, Cat #12-4998-82) was diluted 250-fold with the staining buffer, with a volume of 100 μl per well added to the washed cell wells; the mixture was mixed evenly, and stained at 4° C. for 30 minutes. After the staining, similarly, the cells were washed twice with the staining buffer; finally, the cells were resuspended in 200 μl of staining buffer; signals were detected by a flow cytometer (Thermo Attune NxT). The stronger the signal, the stronger the binding ability of an antibody to TNFR2. The binding curve of an antibody was drawn with antibody concentration as the abscissa and corresponding mean fluorescence intensity (MFI) fold as the ordinate, and fitted with four parameters (GraphPad Prism9) to calculate the EC50 value.

[2] = molecular target: T2, human TNFR2 (Novoprotein, Cat #C830); assay: competition ELISA, competitor human TNFα-Biotin; AUC against 224-WT
Description: 1 μg/ml human TNFR2 (Novoprotein, Cat #C830) was pre-coated with 100 μl/well […] in an ELISA plate. All the test TNFR2 antibodies were subjected to 2.5-fold gradient dilution from the highest concentration of 30 μg/ml; the diluted antibodies were mixed with 15 ng/ml human TNFα-Biotin (Acro Biosystem, Cat #TNA-H82E3) in equal volume, respectively; the resulting mixture was added to the ELISA plate at 100 μl/well, and incubated with shaking at room temperature for 2.0 hours. The plate was washed, and then a Streptavidin-HRP working solution (diluted at 1:10000) was added at 100 μl/well, and the mixture was incubated with shaking at room temperature for 40 minutes. The plate was washed again, and then the substrate TMB of HRP was added to develop colour. A stop solution was added to stop the reaction, and then a microplate reader (MD 13) was used to read the absorbance value. The inhibitory curve of an antibody was drawn with antibody concentration as the abscissa and corresponding OD value as the ordinate, and fitted with four parameters (GraphPad Prism9) to calculate the IC50 value. The smaller the IC50 value, the stronger the ability of an antibody to inhibit the binding of human TNFα to human TNFR2. The blocking effect of a humanized antibody was normalized to its corresponding human-murine chimeric antibody WT. The higher the percentage value, the better the inhibitory effect of the humanized antibody.

Binder	% Relative activity (Test antibody/WT antibody) [1]	% Relative activity (WT antibody/test antibody) [2]
B1	96.2%	98.8%
B2	91%	100%
B3	90.4%	100%
B4	93.1%	100%
B5	101%	102%
B6	101%	98.2%
B7	88.9%	97.2%
